# Paper PMC12052392 (PLOS Pathogens, 2025)
# Numbering of substitutions follows the chain as printed.
# B1: nanobody H58 (VHH)
# VHH: QLQLVESGGGLADDGGSLRLSCAASGFALRYWTVGWFRQAPGKEREGLACISRSGNITSYTDSAKGRFTISRDNAKNTVYLQMNSLKPEDTAVYYCTAVRRCFLTTWTPINPYYGMHSWGKGTLVTVSS
# notes: not shown: His6, C-terminal, kept
# B2: nanobody H85 (VHH)
# VHH: QLQLVESGGGLVQAGGSLRLSCAASGSTISRHAMGWYRQAPGMQRELVASISSGGTTNYADSVKGRFTISRDSAKNMVYLHMTSLKPEDTAVYYCATKPVHMLTRRLHLGGCTYGMDYWGKGTLVTVSS
# notes: as for B1
# B3: nanobody H68 (VHH)
# VHH: EVQVVESGGGLVQPGGSLRLSCVGSSFTLNAIGWFRQAPGKEREWVSCTTGDGSTNYPDSVKGRFTISRDNAKNTVYLQMNSLKPEDTAVYYCTAVRRCFLTTWTPINPYYGMHSWGKGTLVTVSS
# notes: as for B1
# B4: nanobody H49 (VHH)
# VHH: QLQLVESGGGSVQAGGSLRLACTTSGRTFNKYAMAWFRQPPGQEREFIASITWIGGSTYYANSAKGRFTISRDNAKNTAYLQMNSLKPDDTAVYQCQLRKGILSYWGQGTQVTVSS
# notes: as for B1
# B5: nanobody H8 (VHH)
# VHH: QVQLVESGGGLVQTGGSLRLSCAVSRFTLDYGATGWFRQAPGKEREGVSCIGRDDGSTYYAESVKGRFTMSRDKAKNTVYLEMNSLKPEDTAVYYCAADYFARCAANLPNRYLYWGQGTQVTVSS
# notes: as for B1
# B6: nanobody H93 (VHH)
# VHH: QLQLVESGGGLVQPGGSLRLSCVVSGGTLDYHAIAWFRQAPGKVREGVLCISSSGGSTNWLEAVKGRFTISRDNAKNTVYLQMNSLKPEDTAVYYCAAVRRCFLTTWTPINPYYGMHSWGKGTLVTVSS
# notes: as for B1
# B7: nanobody H180 (VHH)
# VHH: QVQLVESGGGLVQAGGSLKLSCAASGLRSDGTAIGWFRQAPGKEREWVSCIRRRDGGTYYADSVESRFTISRDVAKNTVHLQMNSLKPEDTAVYYCASRDDSWCTTRSYEYSYWGQGTPVTVSS
# notes: as for B1
# B8: nanobody H23 (VHH)
# VHH: EVQVVESGGGWVQAGGSRRLSCAASGFTLDSYAVGWFRQAPGKEREGVSCISGISSSGGTTNYVDSVKGRFTISRDNAKNTVYLQMNSLKPEDTAVYYCAAVRRCFLTTWTPINPYYGMHSWGKGTLVTVSS
# notes: as for B1
# B9: nanobody H84 (VHH)
# VHH: B8 VHH with E1Q, V2L, V4L, R18L, V82A, Y83E, A100T
# notes: as for B1
# B10: nanobody H88 (VHH)
# VHH: QVQLVESGGGLLQPGGSLRLSCAASGFTLDNYAIGWFRQAPGKEREWVSCISVSDGRTYYADSVQGRFTTSRDNAKNTVYLHLNSLKPEDTAVYSCASRRGRWCTTRSYEYEYWGQGTQVTVSS
# notes: as for B1
# B11: nanobody H177 (VHH)
# VHH: QVQLVESGGGRVPPGGSLRLSCVASGFYWDYFVISWFRQAPGKEREWVSCIRSATDSANYADFVKGRFTISRENGKSTVYLQMNSLTPEDTAVYRCAVAYGTSWCRNPADMNYWGKGTLVTVSS
# notes: as for B1
# B12: H102 (VHH)
# VHH: QVQLVESGGGLVQPGGSLRLSCTGSGLSLEDYAIGWFRQAPGKDRNWVACIPHKREPLYRDYVRGRFTISRNNTANTVDLQMNSLKPEDTAVYYCTAVRRCFLTTWTPINPYYGMHSWGKGTLVTVSS
# B13: H147 (VHH)
# VHH: QVQLVESGGAWVQPGGSLRLSCVASGFTLDYYAVGWFRQAPGKEREGVSCISRRGGESTNYASSVKGRFTISRDSVKNTVYLQMNSLKPEDTAVYYCAAVLRCFSTTWAPINPYYGMHSWGKGTLVTVSS
# B14: H43 (VHH)
# VHH: EVQVVESGGDLVQAGASLRLSCAAPEPVFISSFGNKYAFGWFRQAPGKQRELVASISGIGNTNYADSVNGRFTISRDNAKNSVYLQMNSLKPEDTAVYYCTAVRRCFLTTWTPINPYYGMHSWGKGTLVTVSS
# B15: H184 (VHH)
# VHH: QLQLVESGGGLVQPGGSLTLSCTASVDYYALGWFRQTPEKQREGVSCIGISGQRTFYADSVKGRFNITRDNTRKTAFLQMKDLKPEDTGVYFCAAERGRTVDAMCLKARPDYWGQGTQVTVSS
# B16: H27 (VHH)
# VHH: EVQVVESGGGLVQAGDSLTLSCVAVQGERFFSQYTVGWFRQAPGRERTLVATINYSRETYYSDSAKGRFTISRDNAKNTVYLQMNSLNPEDTATYYCAATRHARISTTITEDRYDYWGQGTQVTVSS
# B17: H6 (VHH)
# VHH: QVQLVESGGGLVEAGGSLRLSCTTSGGTLSPYTMGWFRQAPGKGREFVSGISCLGWHSYEGDSVKGRFTISRDNAKNTLYLQMNSLKPEDTAVYYCAASSGCSSTMIDADFTSWGQGTQVTVSS
# B18: H45 (VHH)
# VHH: QLQLVESGGGSVQSGGSLRLSCLATGRKLDDLVIKWFRQPPGKLREGVACISGSGRTIKYADSVKGRFIISNEYGKNTVYLQMNSLTPDDTAVYYCAAEQILCDRKWYPLGNDYYGQGTQVTVSS
# B19: H15 (VHH)
# VHH: QLQLVESGGALAQPGGSLTLSCAVRGATLDSYAIAWFREAPGEEREGVACIGGSEESTFMKYSLKDRVSLSTNRAEKMVYLHMNSLQPEDTAAYYCAASASGSRSVLAGCPSRTMGFWGKGTLVTVSS
# B20: H36 (VHH)
# VHH: QVQLVESGGALVQPGGSLTLSCSGHGITLRHYTVGWFREAPGKRRQWISSIRSSDERTNYAASVKGRFIISRNDGENTVKLQLNDVGPEDMATYRCAAGADTIKVFSGWAADYMFWGQGTQVTVSS
# Target: S2 (T1076-Q1208) protein as coated in ELISA (devoid of the His tag) (SARS-CoV-2, MN908947.3, UniProt P0DTC2)
# Assay: ELISA; […], room temperature; […]
# Conditions: both partners purified
row,Binder,binding result
1,B1,binds
2,B2,binds
3,B3,binds
4,B4,binds
5,B5,binds
6,B6,binds
7,B7,binds
8,B8,binds
9,B9,binds
10,B10,binds
11,B11,binds

# Target: SARS-CoV-2 spike (S) protein, full-length, expressed on the surface of HEK-293T cells (SARS-CoV-2 prototype (MN908947.3), UniProt P0DTC2)
# Assay: flow cytometry on cells
# Conditions: one partner purified
row,Binder,binding result
1,B1,binds
2,B3,binds
3,B4,binds
4,B6,binds
5,B7,binds
6,B11,binds

# Target: SARS-CoV-2 S2 (T1076-Q1208) antigen, trimeric S2 fusion-core-based antigen (SARS-CoV-2 prototype (MN908947.3), UniProt P0DTC2, biotin (Biotinylation Kit))
# Assay: not given
# Conditions: not given
row,Binder,binding result
1,B12,binds
2,B13,binds
3,B14,binds
4,B15,binds
5,B16,binds
6,B17,binds
7,B18,binds
8,B19,binds
9,B20,binds
